Starred links: 1 amine or outer side, 2 acyl side, 3 side chain; linkers in the order of their positions; H or OH if unused. Positions of bridges follow the written chain, without caps; N, C: chain ends. Non-standard residues stand in square brackets, D forms with d. *: point of attachment. Tyr(Me) = 4-OMe-Phe, COc1ccc(C[C@H](N[*:1])C(=O)[*:2])cc1; dPhe(4-CONH2) = NC(=O)c1ccc(C[C@@H](N)C(=O)O)cc1; Phe(4-Cl) = N[C@@H](Cc1ccc(Cl)cc1)C(=O)O; dPhe(4-Cl) = N[C@H](Cc1ccc(Cl)cc1)C(=O)O; dCit = NC(=O)NCCC[C@@H](N)C(=O)O; Tle = CC(C)(C)[C@H](N)C(=O)O; Nicotinoyl = O=C(c1cccnc1)*
Molecular target: somatostatin receptor type 2 (SSTR2) (UniProt P30874 1-369)
Test: cell-based or functional assay

Chain of somatostatin receptor type 2 (SSTR2) (P30874 whole entry): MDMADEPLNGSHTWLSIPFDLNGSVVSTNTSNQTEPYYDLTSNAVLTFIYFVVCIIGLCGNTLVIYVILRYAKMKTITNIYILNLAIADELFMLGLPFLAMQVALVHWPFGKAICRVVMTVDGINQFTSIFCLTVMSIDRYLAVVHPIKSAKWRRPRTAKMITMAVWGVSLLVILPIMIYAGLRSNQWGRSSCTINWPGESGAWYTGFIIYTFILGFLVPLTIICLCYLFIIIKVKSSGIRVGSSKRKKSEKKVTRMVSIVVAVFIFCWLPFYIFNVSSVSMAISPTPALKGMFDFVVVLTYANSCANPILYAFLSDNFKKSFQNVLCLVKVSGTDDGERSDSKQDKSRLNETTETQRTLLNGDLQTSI

Binder	IC50 (PathHunter β-Arrestin, antagonist mode)
H-[Phe(4-Cl)][dC]Y[dK](Nicotinoyl)K(Me)TC[dY]-NH2 (disulfide 2-7; SMILES CNCCCC[C@@H]1NC(=O)[C@@H](CCCCNC(=O)c2cccnc2)NC(=O)[C@H](Cc2ccc(O)cc2)NC(=O)[C@H](NC(=O)[C@@H](N)Cc2ccc(Cl)cc2)CSSC[C@@H](C(=O)N[C@H](Cc2ccc(O)cc2)C(N)=O)NC(=O)[C@H]([C@@H](C)O)NC1=O) [Compound 30: H-Cpa-cyclo[D-Cys-Tyr-D-Lys(Nε-nicotinoyl)-Lys(Nε-Me)-Thr-Cys]-D-Tyr-NH2]	177 nM
XXYXKTCX (HELM PEPTIDE1{[N[C@@H](Cc1ccc(Cl)cc1)C(=O)[*:2]].[dC].Y.[COc1ccc(NC(=O)Nc2ccc(C[C@@H](N[*:1])C(=O)[*:2])cc2)cc1].K.T.C.[dY].[am]}$PEPTIDE1,PEPTIDE1,2:R3-7:R3$$$V2.0; SMILES COc1ccc(NC(=O)Nc2ccc(C[C@H]3NC(=O)[C@H](Cc4ccc(O)cc4)NC(=O)[C@H](NC(=O)[C@@H](N)Cc4ccc(Cl)cc4)CSSC[C@@H](C(=O)N[C@H](Cc4ccc(O)cc4)C(N)=O)NC(=O)[C@H]([C@@H](C)O)NC(=O)[C@H](CCCCN)NC3=O)cc2)cc1) [Compound 28: H-Cpa-cyclo[DCys-Tyr-D-(4-(4-methoxyphenyl)ureido)Phe-Lys-Thr-Cys]-DTyr-NH2]	104 nM
H-[Phe(4-Cl)][dC][Phe(4-Cl)][dPhe(4-CONH2)]KTC[dPhe(4-Cl)]-NH2 (disulfide 2-7; SMILES C[C@@H](O)[C@@H]1NC(=O)[C@H](CCCCN)NC(=O)[C@@H](Cc2ccc(C(N)=O)cc2)NC(=O)[C@H](Cc2ccc(Cl)cc2)NC(=O)[C@H](NC(=O)[C@@H](N)Cc2ccc(Cl)cc2)CSSC[C@@H](C(=O)N[C@H](Cc2ccc(Cl)cc2)C(N)=O)NC1=O) [Compound 43: H-Cpa-cyclo[DCys-4-Cl-Phe-D-(4-carbamoyl)Phe-Lys-Thr-Cys]-4-Cl-D-Phe-NH2]	25.6 nM
H-[Phe(4-Cl)][dC]Y[dPhe(4-CONH2)]K[Tle]C[dY]-NH2 (disulfide 2-7; SMILES CC(C)(C)[C@@H]1NC(=O)[C@H](CCCCN)NC(=O)[C@@H](Cc2ccc(C(N)=O)cc2)NC(=O)[C@H](Cc2ccc(O)cc2)NC(=O)[C@H](NC(=O)[C@@H](N)Cc2ccc(Cl)cc2)CSSC[C@@H](C(=O)N[C@H](Cc2ccc(O)cc2)C(N)=O)NC1=O) [Compound 34: H-Cpa-cyclo[DCys-Tyr-D-4-(carbamoyl)Phe-Lys-tBu-Gly-Cys]-DTyr-NH2]	43.4 nM
XCYXKTCX (HELM PEPTIDE1{[N[C@@H](Cc1ccc(Cl)cc1)C(=O)[*:2]].C.Y.[NC(=O)c1ccc(C[C@@H](N[*:1])C(=O)[*:2])cc1].K.T.C.[dY].[am]}$PEPTIDE1,PEPTIDE1,2:R3-7:R3$$$V2.0; SMILES C[C@@H](O)[C@@H]1NC(=O)[C@H](CCCCN)NC(=O)[C@@H](Cc2ccc(C(N)=O)cc2)NC(=O)[C@H](Cc2ccc(O)cc2)NC(=O)[C@@H](NC(=O)[C@@H](N)Cc2ccc(Cl)cc2)CSSC[C@@H](C(=O)N[C@H](Cc2ccc(O)cc2)C(N)=O)NC1=O) [Compound 39: H-Cpa-cyclo[Cys-Tyr-D-(4-carbamoyl)Phe-Lys-Thr-Cys]-DTyr-NH2]	> 1000 nM
H-[Phe(4-Cl)][dC]Y[dPhe(4-CONH2)]K(diMe)TC[dY]-NH2 (disulfide 2-7) [Compound 32: H-Cpa-cyclo[D-Cys-Tyr-D-Phe(4-carbamoyl)-Lys(N-diMe)-Thr-Cys]-D-Tyr-NH2]	2.46 nM
XXFXKTCX (HELM PEPTIDE1{[N[C@@H](Cc1ccc(Cl)cc1)C(=O)[*:2]].[dC].F.[NC(=O)c1ccc(C[C@@H](N[*:1])C(=O)[*:2])cc1].K.T.C.[dF].[am]}$PEPTIDE1,PEPTIDE1,2:R3-7:R3$$$V2.0; SMILES C[C@@H](O)[C@@H]1NC(=O)[C@H](CCCCN)NC(=O)[C@@H](Cc2ccc(C(N)=O)cc2)NC(=O)[C@H](Cc2ccccc2)NC(=O)[C@H](NC(=O)[C@@H](N)Cc2ccc(Cl)cc2)CSSC[C@@H](C(=O)N[C@H](Cc2ccccc2)C(N)=O)NC1=O) [Compound 41: H-Cpa-cyclo[DCys-Phe-D-(4-carbamoyl)Phe-Lys-Thr-Cys]-DPhe-NH2]	24.4 nM
H-[Phe(4-Cl)][dC]Y[dPhe(4-benzamidophenyl)]KTC[dY]-NH2 (disulfide 2-7) [Compound 27: H-Cpa-cyclo[DCys-Tyr-D-(4-Benzamidophenyl)Phe-Lys-Thr-Cys]-DTyr-NH2]	34.7 nM
XXFXKTCX (HELM PEPTIDE1{[N[C@@H](Cc1ccc(Cl)cc1)C(=O)[*:2]].[dC].F.[NC(=O)c1ccc(C[C@@H](N[*:1])C(=O)[*:2])cc1].K.T.C.[dY].[am]}$PEPTIDE1,PEPTIDE1,2:R3-7:R3$$$V2.0; SMILES C[C@@H](O)[C@@H]1NC(=O)[C@H](CCCCN)NC(=O)[C@@H](Cc2ccc(C(N)=O)cc2)NC(=O)[C@H](Cc2ccccc2)NC(=O)[C@H](NC(=O)[C@@H](N)Cc2ccc(Cl)cc2)CSSC[C@@H](C(=O)N[C@H](Cc2ccc(O)cc2)C(N)=O)NC1=O) [Compound 35: H-Cpa-cyclo[DCys-Phe-D-(4-carbamoyl)Phe-Lys-Thr-Cys]-DTyr-NH2]	35.9 nM
H-[Phe(4-Cl)][dC][Phe(4-Cl)][dPhe(4-CONH2)]KTC[dY]-NH2 (disulfide 2-7; SMILES C[C@@H](O)[C@@H]1NC(=O)[C@H](CCCCN)NC(=O)[C@@H](Cc2ccc(C(N)=O)cc2)NC(=O)[C@H](Cc2ccc(Cl)cc2)NC(=O)[C@H](NC(=O)[C@@H](N)Cc2ccc(Cl)cc2)CSSC[C@@H](C(=O)N[C@H](Cc2ccc(O)cc2)C(N)=O)NC1=O) [Compound 36: H-Cpa-cyclo[DCys-Cpa-D-(4-carbamoyl)Phe-Lys-Thr-Cys]-DTyr-NH2]	28.7 nM
H-[Phe(4-Cl)][dC][Tyr(Me)][dPhe(4-CONH2)]KTC[dY]-NH2 (disulfide 2-7; SMILES COc1ccc(C[C@@H]2NC(=O)[C@H](NC(=O)[C@@H](N)Cc3ccc(Cl)cc3)CSSC[C@@H](C(=O)N[C@H](Cc3ccc(O)cc3)C(N)=O)NC(=O)[C@H]([C@@H](C)O)NC(=O)[C@H](CCCCN)NC(=O)[C@@H](Cc3ccc(C(N)=O)cc3)NC2=O)cc1) [Compound 38: H-Cpa-cyclo[DCys-4-OMe-Phe-D-(4-carbamoyl)Phe-Lys-Thr-Cys]-DTyr-NH2]	24.4 nM
XXYXKVCX (HELM PEPTIDE1{[N[C@@H](Cc1ccc(Cl)cc1)C(=O)[*:2]].[dC].Y.[NC(=O)c1ccc(C[C@@H](N[*:1])C(=O)[*:2])cc1].K.V.C.[dY].[am]}$PEPTIDE1,PEPTIDE1,2:R3-7:R3$$$V2.0; SMILES CC(C)[C@@H]1NC(=O)[C@H](CCCCN)NC(=O)[C@@H](Cc2ccc(C(N)=O)cc2)NC(=O)[C@H](Cc2ccc(O)cc2)NC(=O)[C@H](NC(=O)[C@@H](N)Cc2ccc(Cl)cc2)CSSC[C@@H](C(=O)N[C@H](Cc2ccc(O)cc2)C(N)=O)NC1=O) [Compound 33: H-Cpa-cyclo[DCys-Tyr-D-4-(carbamoyl)Phe-Lys-Val-Cys]-DTyr-NH2]	56 nM

More lines, now with the values ahead:

IC50 (PathHunter β-Arrestin, antagonist mode)	Binder
> 1000 nM	XXYXXTCX (HELM PEPTIDE1{[N[C@@H](Cc1ccc(Cl)cc1)C(=O)[*:2]].[dC].Y.[NC(=O)c1ccc(C[C@@H](N[*:1])C(=O)[*:2])cc1].K.T.C.[dY].[am]}|PEPTIDE2{[ac]}$PEPTIDE1,PEPTIDE2,5:R3-1:R2|PEPTIDE1,PEPTIDE1,2:R3-7:R3$$$V2.0; SMILES CC(=O)NCCCC[C@@H]1NC(=O)[C@@H](Cc2ccc(C(N)=O)cc2)NC(=O)[C@H](Cc2ccc(O)cc2)NC(=O)[C@H](NC(=O)[C@@H](N)Cc2ccc(Cl)cc2)CSSC[C@@H](C(=O)N[C@H](Cc2ccc(O)cc2)C(N)=O)NC(=O)[C@H]([C@@H](C)O)NC1=O) [Compound 26: H-Cpa-cyclo[DCys-Tyr-D-(4-carbamoyl)Phe-(N-Acetyl)Lys-Thr-Cys]-DTyr-NH2]
10.6 nM	XXYXKSCX (HELM PEPTIDE1{[N[C@@H](Cc1ccc(Cl)cc1)C(=O)[*:2]].[dC].Y.[NC(=O)c1ccc(C[C@@H](N[*:1])C(=O)[*:2])cc1].K.S.C.[dY].[am]}$PEPTIDE1,PEPTIDE1,2:R3-7:R3$$$V2.0; SMILES NCCCC[C@@H]1NC(=O)[C@@H](Cc2ccc(C(N)=O)cc2)NC(=O)[C@H](Cc2ccc(O)cc2)NC(=O)[C@H](NC(=O)[C@@H](N)Cc2ccc(Cl)cc2)CSSC[C@@H](C(=O)N[C@H](Cc2ccc(O)cc2)C(N)=O)NC(=O)[C@H](CO)NC1=O) [Compound 37: H-Cpa-cyclo[DCys-Tyr-D-(4-carbamoyl)Phe-Lys-Ser-Cys]-DTyr-NH2]
398 nM	XXYXRTCX (HELM PEPTIDE1{[N[C@@H](Cc1ccc(Cl)cc1)C(=O)[*:2]].[dC].Y.[NC(=O)c1ccc(C[C@@H](N[*:1])C(=O)[*:2])cc1].R.T.C.[dY].[am]}$PEPTIDE1,PEPTIDE1,2:R3-7:R3$$$V2.0; SMILES C[C@@H](O)[C@@H]1NC(=O)[C@H](CCCNC(=N)N)NC(=O)[C@@H](Cc2ccc(C(N)=O)cc2)NC(=O)[C@H](Cc2ccc(O)cc2)NC(=O)[C@H](NC(=O)[C@@H](N)Cc2ccc(Cl)cc2)CSSC[C@@H](C(=O)N[C@H](Cc2ccc(O)cc2)C(N)=O)NC1=O) [Compound 29: H-Cpa-cyclo[DCys-Tyr-D-(4-carbamoyl)Phe-Arg-Thr-Cys]-DTyr-NH2]
9.84 nM	H-[Phe(4-Cl)][dC]Y[dPhe(4-CONH2)]KTC[dPhe(4-Cl)]-NH2 (disulfide 2-7; SMILES C[C@@H](O)[C@@H]1NC(=O)[C@H](CCCCN)NC(=O)[C@@H](Cc2ccc(C(N)=O)cc2)NC(=O)[C@H](Cc2ccc(O)cc2)NC(=O)[C@H](NC(=O)[C@@H](N)Cc2ccc(Cl)cc2)CSSC[C@@H](C(=O)N[C@H](Cc2ccc(Cl)cc2)C(N)=O)NC1=O) [Compound 42: H-Cpa-cyclo[DCys-Tyr-D-(4-carbamoyl)Phe-Lys-Thr-Cys]-4-Cl-D-Phe-NH2]
70.4 nM	H-[Phe(4-Cl)][dC]Y[dCit]K(Me)TC[dY]-NH2 (disulfide 2-7; SMILES CNCCCC[C@@H]1NC(=O)[C@@H](CCCNC(N)=O)NC(=O)[C@H](Cc2ccc(O)cc2)NC(=O)[C@H](NC(=O)[C@@H](N)Cc2ccc(Cl)cc2)CSSC[C@@H](C(=O)N[C@H](Cc2ccc(O)cc2)C(N)=O)NC(=O)[C@H]([C@@H](C)O)NC1=O) [Compound 31: H-Cpa-cyclo[DCys-Tyr-D-Cit-(N-Me)Lys-Thr-Cys]-DTyr-NH2]
16.2 nM	XXYXKTCX (HELM PEPTIDE1{[N[C@@H](Cc1ccc(Cl)cc1)C(=O)[*:2]].[dC].Y.[NC(=O)c1ccc(C[C@@H](N[*:1])C(=O)[*:2])cc1].K.T.C.[dF].[am]}$PEPTIDE1,PEPTIDE1,2:R3-7:R3$$$V2.0; SMILES C[C@@H](O)[C@@H]1NC(=O)[C@H](CCCCN)NC(=O)[C@@H](Cc2ccc(C(N)=O)cc2)NC(=O)[C@H](Cc2ccc(O)cc2)NC(=O)[C@H](NC(=O)[C@@H](N)Cc2ccc(Cl)cc2)CSSC[C@@H](C(=O)N[C@H](Cc2ccccc2)C(N)=O)NC1=O) [Compound 40: H-Cpa-cyclo[DCys-Tyr-D-(4-carbamoyl)Phe-Lys-Thr-Cys]-DPhe-NH2]
